These results are taken from paper PMC10580122, “Human IL-35 Inhibits the Bioactivity of IL-12 and Its Interaction with IL-12Rβ2” (ImmunoHorizons, 2023).

For this assay, the target named is T1, recombinant human IL-12Rβ1 (human, UniProt P42701 24-545).
T1 construct: human IL-12 receptor subunit beta-1, recombinant; also called rIL-12Rβ1; source: bought: Sino Biological (11674-H08H)
Briefly: ELISA; solid-phase binding assay; wells coated with rIL-12Rβ1, rIL-12Rβ2 or no IL-12R chain; IL-12 or IL-12p40 monomer alone or with IL-35, each cytokine fixed at 5 μg/ml; overnight at 4°C; detected with anti-IL-12 or anti-IL-12p40 and HRP. Particulars: both partners purified. (In general: In an ELISA, binding on a coated surface is turned into a signal by an enzyme label.)

B1: Human IL-12 (complex)
chain 1: RNLPVATPDPGMFPCLHHSQNLLRAVSNMLQKARQTLEFYPCTSEEIDHEDITKDKTSTVEACLPLELTKNESCLNSRETSFITNGSCLASRKTSFMMALCLSSIYEDLKMYQVEFKTMNAKLLMDPKRQIFLDQNMLAVIDELMQALNFNSETVPQKSSLEEPDFYKTKIKLCILLHAFRIRAVTIDRVMSYLNAS
chain 2: IWELKKDVYVVELDWYPDAPGEMVVLTCDTPEEDGITWTLDQSSEVLGSGKTLTIQVKEFGDAGQYTCHKGGEVLSHSLLLLHKKEDGIWSTDILKDQKEPKNKTFLRCEAKNYSGRFTCWWLTTISTDLTFSVKSSRGSSDPQGVTCGAATLSAERVRGDNKEYEYSVECQEDSACPAAEESLPIEVMVDAVHKLKYENYTSSFFIRDIIKPDPPKNLQLKPLKNSRQVEVSWEYPDTWSTPHSYFSLTFCVQVQGKSKREKKDRVFTDKTSATVICRKNASISVRAQDRYYSSSWSEWASVPCS
notes: p35 subunit of human IL-12 (IL-12p35); linked to p40 via a disulfide bond; p40 subunit of human IL-12 (IL-12p40); linked to p35 via a disulfide bond; Bought heterodimer of p35 and p40; also called exogenous human IL-12; source: bought: PeproTech (200-12H)
B1: the binding result is “binds”.
